Data taken from publication PMC2121072 (The Journal of Cell Biology, 1996).

What was measured:
[1] = target: GST-hDlg fusion protein (Homo sapiens, UniProt Q12959); test: Binding of ezrin / PTP-H1 to GST-hDlg; details: PTP-H1 expressed in baculovirus system; data not shown
[2] = system: three PDZ domains of hDlg; details: ref Lue et al., 1994; cited from earlier work
[3] = system: PDZ 1+2 module; test: Blot overlay assay; type: binding, human; details: data not shown
[4] = system: protease-resistant module of hDlg containing PDZ domains 1 and 2; details: ref Lue et al., 1995 [Abstract #1557]; cited from earlier work

B1: PTP-H1: tyrosine phosphatase expressed in the baculovirus expression system (protein)
chain: MTSRLRALGGRINNIRTSELPKEKTRSEVICSIHFLDGVVQTFKVTKQDTGQVLLDMVHNHLGVTEKEYFGLQHDDDSVDSPRWLEASKAIRKQLKGGFPCTLHFRVRFFIPDPNTLQQEQTRHLYFLQLKMDICEGRLTCPLNSAVVLASYAVQSHFGDYNSSIHHPGYLSDSHFIPDQNEDFLTKVESLHEQHSGLKQSEAESCYINIARTLDFYGVELHSGRDLHNLDLMIGIASAGVAVYRKYICTSFYPWVNILKISFKRKKFFIHQRQKQAESREHIVAFNMLNYRSCKNLWKSCVEHHTFFQAKKLLPQEKNVLSQYWTMGSRNTKKSVNNQYCKKVIGGMVWNPAMRRSLSVEHLETKSLPSRSPPITPNWRSPRLRHEIRKPRHSSADNLANEMTYITETEDVFYTYKGSLAPQDSDSEVSQNRSPHQESLSENNPAQSYLTQKSSSSVSPSSNAPGSCSPDGVDQQLLDDFHRVTKGGSTEDASQYYCDKNDNGDSYLVLIRITPDEDGKFGFNLKGGVDQKMPLVVSRINPESPADTCIPKLNEGDQIVLINGRDISEHTHDQVVMFIKASRESHSRELALVIRRRAVRSFADFKSEDELNQLFPEAIFPMCPEGGDTLEGSMAQLKKGLESGTVLIQFEQLYRKKPGLAITFAKLPQNLDKNRYKDVLPYDTTRVLLQGNEDYINASYVNMEIPAANLVNKYIATQGPLPHTCAQFWQVVWDQKLSLIVMLTTLTERGRTKCHQYWPDPPDVMNHGGFHIQCQSEDCTIAYVSREMLVTNTQTGEEHTVTHLQYVAWPDHGVPDDSSDFLEFVNYVRSLRVDSEPVLVHCSAGIGRTGVLVTMETAMCLTERNLPIYPLDIVRKMRDQRAMMVQTSSQYKFVCEAILRVYEEGLVQMLDPS
[1]
  interaction with GST-hDlg: no interaction

B2: protein 4.1: native protein 4.1 isolated from human RBCs (protein, UniProt P11171 1-864, looked up)
Protein 4.1: MTTEKSLVTEAENSQHQQKEEGEEAINSGQQEPQQEESCQTAAEGDNWCEQKLKASNGDTPTHEDLTKNKERTSESRGLSRLFSSFLKRPKSQVSEEEGKEVESDKEKGEGGQKEIEFGTSLDEEIILKAPIAAPEPELKTDPSLDLHSLSSAETQPAQEELREDPDFEIKEGEGLEECSKIEVKEESPQSKAETELKASQKPIRKHRNMHCKVSLLDDTVYECVVEKHAKGQDLLKRVCEHLNLLEEDYFGLAIWDNATSKTWLDSAKEIKKQVRGVPWNFTFNVKFYPPDPAQLTEDITRYYLCLQLRQDIVAGRLPCSFATLALLGSYTIQSELGDYDPELHGVDYVSDFKLAPNQTKELEEKVMELHKSYRSMTPAQADLEFLENAKKLSMYGVDLHKAKDLEGVDIILGVCSSGLLVYKDKLRINRFPWPKVLKISYKRSSFFIKIRPGEQEQYESTIGFKLPSYRAAKKLWKVCVEHHTFFRLTSTDTIPKSKFLALGSKFRYSGRTQAQTRQASALIDRPAPHFERTASKRASRSLDGAAAVDSADRSPRPTSAPAITQGQVAEGGVLDASAKKTVVPKAQKETVKAEVKKEDEPPEQAEPEPTEAWKVEKTHIEVTVPTSNGDQTQKLAEKTEDLIRMRKKKRERLDGENIYIRHSNLMLEDLDKSQEEIKKHHASISELKKNFMESVPEPRPSEWDKRLSTHSPFRTLNINGQIPTGEGPPLVKTQTVTISDNANAVKSEIPTKDVPIVHTETKTITYEAAQTDDNSGDLDPGVLLTAQTITSETPSSTTTTQITKTVKGGISETRIEKRIVITGDADIDHDQVLVQAIKEAKEQHPDMSVTKVVVHQETEIADE
[2]
  affinity for three PDZ domains vs 4.1B (I3) domain: significantly lower affinity
[3]
  binding of protein 4.1 to PDZ 1+2 module: no binding
[4]
  binding to protease-resistant module: binds
